Results reported in patent US20260193342A1 (ZOETIS SERVICES, published 2026).
Changes are numbered by the printed parent chain. Numbers in names are those of the source.

B1: mAb2 of Table 4A, caninized anti-NGF antibody ZTS-841, canine IgGB, WT (antibody)
heavy: EVQLVESGGDLVKPGGSLRLSCVASGFTFSSHGMHWVRQSPGKGLQWVAVINSGGSSTYYTDAVKGRFTISRDNAKNTVYLQMNSLRAEDTAMYYCAKESVGGWEQLVGPHFDYWGQGTLVIVSSASTTAPSVFPLAPSCGSTSGSTVALACLVSGYFPEPVTVSWNSGSLTSGVHTFPSVLQSSGLYSLSSMVTVPSSRWPSETFTCNVAHPASKTKVDKPVPKRENGRVPRPPDCPKCPAPEMLGGPSVFIFPPKPKDTLLIARTPEVTCVVVDLDPEDPEVQISWFVDGKQMQTAKTQPREEQFNGTYRVVSVLPIGHQDWLKGKQFTCKVNNKALPSPIERTISKARGQAHQPSVYVLPPSREELSKNTVSLTCLIKDFFPPDIDVEWQSNGQQEPESKYRTTPPQLDEDGSYFLYSKLSVDKSRWQRGDTFICAVMHEALHNHYTQESLSHSPGK
VL: QSVLTQPTSVSGSLGQRVTISCSGSTNNIGILGASWYQLFPGKAPKLLVYGNGNRPSGVPDRFSGADSGDSVTLTITGLQAEDEADYYCQSFDTTLGAHVFGGGTHLTVL
notes: also called ID No. 46
B2: mAb2 of Table 4A, caninized anti-NGF antibody ZTS-841, canine IgGB, N434F (antibody)
heavy: B1 heavy with N447F
VL: B1 VL
notes: also called ID No. 48
B3: mAb2 of Table 4A, caninized anti-NGF antibody ZTS-841, canine IgGD, WT (antibody)
heavy: EVQLVESGGDLVKPGGSLRLSCVASGFTFSSHGMHWVRQSPGKGLQWVAVINSGGSSTYYTDAVKGRFTISRDNAKNTVYLQMNSLRAEDTAMYYCAKESVGGWEQLVGPHFDYWGQGTLVIVSSASTTAPSVFPLAPSCGSTSGSTVALACLVSGYFPEPVTVSWNSGSLTSGVHTFPSVLQSSGLYSLSSTVTVPSSRWPSETFTCNVVHPASNTKVDKPVPKESTCKCISPCPVPESLGGPSVFIFPPKPKDILRITRTPEITCVVLDLGREDPEVQISWFVDGKEVHTAKTQPREQQFNSTYRVVSVLPIEHQDWLTGKEFKCRVNHIGLPSPIERTISKARGQAHQPSVYVLPPSPKELSSSDTVTLTCLIKDFFPPEIDVEWQSNGQPEPESKYHTTAPQLDEDGSYFLYSKLSVDKSRWQQGDTFTCAVMHEALQNHYTDLSLSHSPGK
VL: B1 VL
notes: also called ID No. 55
B4: mAb2 of Table 4A, caninized anti-NGF antibody ZTS-841, canine IgGC, WT (antibody)
heavy: EVQLVESGGDLVKPGGSLRLSCVASGFTFSSHGMHWVRQSPGKGLQWVAVINSGGSSTYYTDAVKGRFTISRDNAKNTVYLQMNSLRAEDTAMYYCAKESVGGWEQLVGPHFDYWGQGTLVIVSSASTTAPSVFPLAPSCGSQSGSTVALACLVSGYIPEPVTVSWNSVSLTSGVHTFPSVLQSSGLYSLSSMVTVPSSRWPSETFTCNVAHPATNTKVDKPVAKECECKCNCNNCPCPGCGLLGGPSVFIFPPKPKDILVTARTPTVTCVVVDLDPENPEVQISWFVDSKQVQTANTQPREEQSNGTYRVVSVLPIGHQDWLSGKQFKCKVNNKALPSPIEEIISKTPGQAHQPNVYVLPPSRDEMSKNTVTLTCLVKDFFPPEIDVEWQSNGQQEPESKYRMTPPQLDEDGSYFLYSKLSVDKSRWQRGDTFICAVMHEALHNHYTQISLSHSPGK
VL: B1 VL
notes: also called ID No. 53
B5: mAb2 of Table 4A, caninized anti-NGF antibody ZTS-841, canine IgGC, N434H (antibody)
heavy: B4 heavy with N445H
VL: B1 VL
notes: also called ID No. 54
B6: mAb2 of Table 4A, caninized anti-NGF antibody ZTS-841, canine IgGB, N434G (antibody)
heavy: B1 heavy with N447G
VL: B1 VL
notes: also called ID No. 49
B7: mAb2 of Table 4A, caninized anti-NGF antibody ZTS-841, canine IgGB, N434L (antibody)
heavy: B1 heavy with N447L
VL: B1 VL
notes: also called ID No. 52
B8: mAb2 of Table 4A, caninized anti-NGF antibody ZTS-841, canine IgGB, N434A (antibody)
heavy: B1 heavy with N447A
VL: B1 VL
notes: also called ID No. 47
B9: mAb1, caninized anti-IL31 antibody 34D03, canine IgGC, WT (antibody)
heavy: EVQLVESGGDLVKPGGSLRLSCVASGFTFSNYGMSWVRQAPGKGLQWVATISYGGSYTYYPDNIKGRFTISRDNAKNTLYLQMNSLRAEDTAMYYCVRGYGYDTMDYWGQGTLVTVSSASTTAPSVFPLAPSCGSQSGSTVALACLVSGYIPEPVTVSWNSVSLTSGVHTFPSVLQSSGLYSLSSMVTVPSSRWPSETFTCNVAHPATNTKVDKPVAKECECKCNCNNCPCPGCGLLGGPSVFIFPPKPKDILVTARTPTVTCVVVDLDPENPEVQISWFVDSKQVQTANTQPREEQSNGTYRVVSVLPIGHQDWLSGKQFKCKVNNKALPSPIEEIISKTPGQAHQPNVYVLPPSRDEMSKNTVTLTCLVKDFFPPEIDVEWQSNGQQEPESKYRMTPPQLDEDGSYFLYSKLSVDKSRWQRGDTFICAVMHEALHNHYTQISLSHSPGK
VL: EIVMTQSPASLSLSQEEKVTITCKASQSVSFAGTGLMHWYQQKPGQAPKLLIYRASNLEAGVPSRFSGSGSGTDFSFTISSLEPEDVAVYYCQQSREYPWTFGQGTKLEIK
notes: VH/VL: the caninized 34D03 entries of the listing; also called ID No. 35
B10: mAb1, caninized anti-IL31 antibody 34D03, canine IgGD, WT (antibody)
heavy: EVQLVESGGDLVKPGGSLRLSCVASGFTFSNYGMSWVRQAPGKGLQWVATISYGGSYTYYPDNIKGRFTISRDNAKNTLYLQMNSLRAEDTAMYYCVRGYGYDTMDYWGQGTLVTVSSASTTAPSVFPLAPSCGSTSGSTVALACLVSGYFPEPVTVSWNSGSLTSGVHTFPSVLQSSGLYSLSSTVTVPSSRWPSETFTCNVVHPASNTKVDKPVPKESTCKCISPCPVPESLGGPSVFIFPPKPKDILRITRTPEITCVVLDLGREDPEVQISWFVDGKEVHTAKTQPREQQFNSTYRVVSVLPIEHQDWLTGKEFKCRVNHIGLPSPIERTISKARGQAHQPSVYVLPPSPKELSSSDTVTLTCLIKDFFPPEIDVEWQSNGQPEPESKYHTTAPQLDEDGSYFLYSKLSVDKSRWQQGDTFTCAVMHEALQNHYTDLSLSHSPGK
VL: B9 VL
notes: VH/VL: the caninized 34D03 entries of the listing; also called ID No. 37
B11: mAb1, caninized anti-IL31 antibody 34D03, canine IgGA, N434W (antibody)
heavy: EVQLVESGGDLVKPGGSLRLSCVASGFTFSNYGMSWVRQAPGKGLQWVATISYGGSYTYYPDNIKGRFTISRDNAKNTLYLQMNSLRAEDTAMYYCVRGYGYDTMDYWGQGTLVTVSSASTTAPSVFPLAPSCGSTSGSTVALACLVSGYFPEPVTVSWNSGSLTSGVHTFPSVLQSSGLHSLSSMVTVPSSRWPSETFTCNVVHPASNTKVDKPVFNECRCTDTPPCPVPEPLGGPSVLIFPPKPKDILRITRTPEVTCVVLDLGREDPEVQISWFVDGKEVHTAKTQSREQQFNGTYRVVSVLPIEHQDWLTGKEFKCRVNHIDLPSPIERTISKARGRAHKPSVYVLPPSPKELSSSDTVSITCLIKDFYPPDIDVEWQSNGQQEPERKHRMTPPQLDEDGSYFLYSKLSVDKSRWQQGDPFTCAVMHETLQWHYTDLSLSHSPGK
light: EIVMTQSPASLSLSQEEKVTITCKASQSVSFAGTGLMHWYQQKPGQAPKLLIYRASNLEAGVPSRFSGSGSGTDFSFTISSLEPEDVAVYYCQQSREYPWTFGQGTKLEIKRNDAQPAVYLFQPSPDQLHTGSASVVCLLNSFYPKDINVKWKVDGVIQDTGIQESVTEQDKDSTYSLSSTLTMSSTEYLSHELYSCEITHKSLPSTLIKSFQRSEC
notes: VH/VL: the caninized 34D03 entries of the listing; also called ID No. 6; copies: 2 + 2
B12: mAb1, caninized anti-IL31 antibody 34D03, canine IgGD, N434H (antibody)
chain 1: B10 heavy with N436H
chain 2: B11 light
B13: mAb1, caninized anti-IL31 antibody 34D03, canine IgGC, N434H (antibody)
chain 1: B9 heavy with N438H
chain 2: B11 light

Target: canine FcRn complex (FcRn-α subunit and β-microglobulin) (canine, UniProt A0A8I3PFR8 25-347, biotin on the BAP tag by BirA (Example 5 only))
Sequence (A0A8I3PFR8 entry or part of it, one chain of several): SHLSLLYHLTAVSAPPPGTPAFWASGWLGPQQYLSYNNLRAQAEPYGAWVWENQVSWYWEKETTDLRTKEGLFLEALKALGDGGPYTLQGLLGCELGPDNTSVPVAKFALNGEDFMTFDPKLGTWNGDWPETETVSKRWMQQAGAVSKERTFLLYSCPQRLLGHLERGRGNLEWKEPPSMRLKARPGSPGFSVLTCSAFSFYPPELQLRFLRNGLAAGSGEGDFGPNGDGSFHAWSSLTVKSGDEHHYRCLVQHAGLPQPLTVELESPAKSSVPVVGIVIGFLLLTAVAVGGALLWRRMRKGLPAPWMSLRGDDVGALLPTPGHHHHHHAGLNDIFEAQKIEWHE
Assay: SPR (Biacore), biotinylated FcRn on SA chip, IgG flowed, pH 6, 15 C

Kd [nM] | Binder
91.5 | B1
1.92 | B2
71 | B3
52 | B4
20.4 | B5
34.3 | B6
1.83 | B7
9.81 | B8
100 | B9
34.5 | B10
19.9 | B11
3.21 | B12
87.9 | B13
